In US20100047228:

Molecular target: delta-plasminogen
Sequence (chain, as listed by the source mutant): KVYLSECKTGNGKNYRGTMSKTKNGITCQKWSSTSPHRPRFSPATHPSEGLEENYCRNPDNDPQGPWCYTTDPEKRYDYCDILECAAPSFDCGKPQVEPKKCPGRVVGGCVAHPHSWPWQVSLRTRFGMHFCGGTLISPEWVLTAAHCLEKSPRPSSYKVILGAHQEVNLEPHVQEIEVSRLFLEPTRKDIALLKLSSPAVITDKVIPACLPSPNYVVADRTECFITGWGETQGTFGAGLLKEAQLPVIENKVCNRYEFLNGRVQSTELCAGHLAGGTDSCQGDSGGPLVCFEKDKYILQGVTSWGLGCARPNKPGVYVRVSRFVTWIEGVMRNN

B1: tissue Plasminogen Activator (protein)
chain: SYQVICRDEKTQMIYQQHQSWLRPVLRSNRVEYCWCNSGRAQCHSVPVKSCSEPRCFNGGTCQQALYFSDFVCQCPEGFAGKCCEIDTRATCYEDQGISYRGTWSTAESGAECTNWNSSALAQKPYSGRRPDAIRLGLGNHNYCRNPDRDSKPWCYVFKAGKYSSEFCSTPACSEGNSDCYFGNGSAYRGTHSLTESGASCLPWNSMILIGKVYTAQNPSAQALGLGKHNYCRNPDGDAKPWCHVLKNRRLTWEYCDVPSCSTCGLRQYSQPQFRIKGGLFADIASHPWQAAIFAKHRRSPGERFLCGGILISSCWILSAAHCFQERFPPHHLTVILGRTYRVVPGEEEQKFEVEKYIVHKEFDDDTYDNDIALLQLKSDSSRCAQESSVVRTVCLPPADLQLPDWTECELSGYGKHEALSPFYSERLKEAHVRLYPSSRCTSQHLLNRTVTDNMLCAGDTRSGGPQANLHDACQGDSGGPLVCLNDGRMTLVGIISWGLGCGQKDVPGVYTKVTNYLDWIRDNMRP
  conversion of one-chain delta-plasminogen into two-chain delta-plasmin (reduced SDS-PAGE): delta-plasminogen indeed can be activated by all three plasminogen activators
